This passage reports Kd, koff and kon results from US20160083465A1 (AVEO PHARMACEUTICALS, published 2016).

T1: mouse IgG1 Fc-mature human GDF15 fusion protein (mFc-rhGDF15) (mouse; human)
T1 construct: Made in CHOK1SV cells, purified by Protein A and size exclusion; also called mouse Fc fused to human GDF15
T1 chain: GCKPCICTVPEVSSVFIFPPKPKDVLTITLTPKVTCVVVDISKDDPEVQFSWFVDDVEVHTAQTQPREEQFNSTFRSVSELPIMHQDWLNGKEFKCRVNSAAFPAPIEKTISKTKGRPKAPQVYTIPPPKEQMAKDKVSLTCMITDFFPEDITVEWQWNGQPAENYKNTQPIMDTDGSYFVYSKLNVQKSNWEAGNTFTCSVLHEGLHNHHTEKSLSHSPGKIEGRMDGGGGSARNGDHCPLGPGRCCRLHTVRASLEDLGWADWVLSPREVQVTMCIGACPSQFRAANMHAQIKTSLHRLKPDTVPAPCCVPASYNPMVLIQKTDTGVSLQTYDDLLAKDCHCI

B1: Hu06C11-27 (antibody, human IgG1, kappa)
heavy: not shown
light: DIQMTQSPSSLSASVGDRVTITCKASQNVGTNVAWFQQKPGKAPKSLIYSASYRYSGVPSRFSGSGSGTDFTLTISSLQPEDFATYYCQQYNNYPLTFGQGTKLEIKRTVAAPSVFIFPPSDEQLKSGTASVVCLLNNFYPREAKVQWKVDNALQSGNSQESVTEQDSKDSTYSLSSTLTLSKADYEKHKVYACEVTHQGLSSPVTKSFNRGEC
notes: Humanized, human IgG1 kappa
B2: Hu14F11-39 (antibody, human IgG1, kappa)
heavy: not shown
light: B1 light with A43S, S46A, A51P, Y87F, N93S, L96H
notes: Humanized, human IgG1 kappa
B3: Hu14F11-47 (antibody, human IgG1, kappa)
heavy: not shown
light: B1 light with A43S, S46A, A51P, Y87F, N93S, L96H
notes: Humanized, human IgG1 kappa
B4: Hu06C11-30 (antibody, human IgG1, kappa)
heavy: not shown
light: B1 light
notes: Humanized, human IgG1 kappa
B5: Hu01G06-1 (antibody, human IgG1, kappa)
heavy: not shown
light: DIQMTQSPASLSASVGETVTITCRTSENLHNYLAWYQQKQGKSPQLLVYDAKTLADGVPSRFSGSGSGTQYSLKINSLQPEDFGSYYCQHFWSSPYTFGGGTKLEIKRTVAAPSVFIFPPSDEQLKSGTASVVCLLNNFYPREAKVQWKVDNALQSGNSQESVTEQDSKDSTYSLSSTLTLSKADYEKHKVYACEVTHQGLSSPVTKSFNRGEC
notes: Mouse variable regions, human IgG1 and kappa constant regions; also called Chimeric 01G06; chimeric 01G06 (Hu01G06-1)
B6: Hu01G06-52 (antibody, human IgG1, kappa)
heavy: not shown
light: DIQMTQSPSSLSASVGDRVTITCRTSENLHNYLAWYQQKPGKSPKLLVYDAKTLADGVPSRFSGSGSGTDYTLTISSLQPEDFATYYCQHFWSSPYTFGQGTKLEIKRTVAAPSVFIFPPSDEQLKSGTASVVCLLNNFYPREAKVQWKVDNALQSGNSQESVTEQDSKDSTYSLSSTLTLSKADYEKHKVYACEVTHQGLSSPVTKSFNRGEC
notes: Humanized, human IgG1 kappa
B7: Hu01G06-46 (antibody, human IgG1, kappa)
heavy: not shown
light: B6 light
notes: Humanized, human IgG1 kappa
B8: Hu06C11-1 (antibody, human IgG1, kappa)
heavy: not shown
light: DIVMTQSQKFMSTSVGDRVSVTCKASQNVGTNVAWFQQKPGQSPKALIYSASYRYSGVPDRFTGSGSGTDFILTISNVQSEDLAEYFCQQYNNYPLTFGAGTKLELKRTVAAPSVFIFPPSDEQLKSGTASVVCLLNNFYPREAKVQWKVDNALQSGNSQESVTEQDSKDSTYSLSSTLTLSKADYEKHKVYACEVTHQGLSSPVTKSFNRGEC
notes: Mouse variable regions, human IgG1 and kappa constant regions; also called Chimeric 06C11
B9: Hu01G06-105 (antibody, human IgG1, kappa)
heavy: not shown
light: B6 light with V48I
notes: Humanized, human IgG1 kappa; tested in supernatant
B10: Hu01G06-101 (antibody, human IgG1, kappa)
heavy: not shown
light: B6 light
notes: as for B9
B11: Hu01G06-104 (antibody, human IgG1, kappa)
heavy: not shown
light: B6 light
notes: as for B9
B12: Hu01G06-113 (antibody, human IgG1, kappa)
heavy: not shown
light: B6 light with S43A, V48I
notes: as for B9
B13: Hu01G06-110 (antibody, human IgG1, kappa)
heavy: not shown
light: B6 light with S43A, V48I
notes: as for B9
B14: Hu01G06-114 (antibody, human IgG1, kappa)
heavy: not shown
light: B6 light with S43A, V48I
notes: as for B9
B15: Hu01G06-112 (antibody, human IgG1, kappa)
heavy: not shown
light: B6 light with S43A, V48I
notes: as for B9
B16: Hu01G06-100 (antibody, human IgG1, kappa)
heavy: not shown
light: B6 light
notes: as for B9
B17: Hu01G06-111 (antibody, human IgG1, kappa)
heavy: not shown
light: B6 light with S43A, V48I
notes: as for B9
B18: Hu01G06-109 (antibody, human IgG1, kappa)
heavy: not shown
light: B6 light with V48I
notes: as for B9
B19: Hu01G06-107 (antibody, human IgG1, kappa)
heavy: not shown
light: B6 light with V48I
notes: as for B9
B20: Hu01G06-103 (antibody, human IgG1, kappa)
heavy: not shown
light: B6 light
notes: as for B9
B21: Hu01G06-108 (antibody, human IgG1, kappa)
heavy: not shown
light: B6 light with V48I
notes: as for B9
B22: Hu01G06-102 (antibody, human IgG1, kappa)
heavy: not shown
light: B6 light
notes: as for B9
B23: Hu01G06-106 (antibody, human IgG1, kappa)
heavy: not shown
light: B6 light with V48I
notes: as for B9

In general, Kd refers to the free concentration of one partner at which half of the binding sites on the other are occupied at equilibrium, for simple one-to-one binding. Read a high Kd as weaker binding. In general, koff refers to the first-order rate constant of dissociation. Higher therefore signals fast dissociation. As a reminder, the kon is the second-order rate constant of association.

Numbering of substitutions follows the chain as printed.

In the first assay the target is T1, mouse IgG1 Fc-mature human GDF15 fusion …. Nature of the assay: SPR Biacore T100, 37 C, purified antibody captured by anti-human IgG Fc, antigen in solution. As to the method:
Goat anti-human IgGs (Fc fragment specific, Jackson ImmunoResearch, West Grove, Pa.) were immobilized on carboxymethylated dextran CM4 sensor chips by amine coupling, according to a standard protocol. Analyses were performed at 37° C. using PBS containing 0.05% surfactant P20 as running buffer. The antibodies were captured in individual flow cells at a flow rate of 10 μL/minute. Injection time was varied for each antibody to yield an Rmax between 30 and 60 RU. […] The dissociation phase was monitored for up to 1200 seconds. The surface was then regenerated with two 60-second injections of 10 mM Glycine-HCl, pH 2.25, at a flow rate of 30 μL/minute.
Kinetic parameters were determined using the kinetic function of the BIAevaluation software (GE Healthcare) with double reference subtraction.
For orientation: SPR reads the build-up and loss of mass on a sensor chip optically.
The molecule B1 showed a dissociation constant (Kd) of 180 pM, a koff of 0.00082 s⁻¹ and a kon of 4.7e+06 M⁻¹ s⁻¹.

Molecule B2 had a Kd of 66 pM, a koff of 0.00019 s⁻¹ and an on-rate (kon) of 3e+06 M⁻¹ s⁻¹.

B3 registered a Kd of 65 pM, a koff of 0.00018 s⁻¹ and a kon of 3.3e+06 M⁻¹ s⁻¹.

Consider B4, for which the dissociation constant (Kd) was 180 pM, the koff was 0.00087 s⁻¹ and the on-rate (kon) came to 4.8e+06 M⁻¹ s⁻¹.

For B5, the Kd is 160 pM, the off-rate (koff) was determined as 0.00064 s⁻¹ and the kon stood at 4.2e+06 M⁻¹ s⁻¹.

As to B6, the affinity, expressed as Kd, was 99 pM; the off-rate (koff) amounted to 0.00036 s⁻¹; the kon came out at 3.6e+06 M⁻¹ s⁻¹.

In turn, B7 yielded a Kd of 110 pM, an off-rate constant (koff) of 0.00038 s⁻¹ and a kon of 3.6e+06 M⁻¹ s⁻¹.

The molecule B8 registered a dissociation constant (Kd) of 180 pM, a koff of 0.00084 s⁻¹ and a kon of 5.3e+06 M⁻¹ s⁻¹.

A further assay shares this target. Kind of assay: SPR Biacore T100, 37 C, antibody from supernatant captured by anti-human IgG Fc, antigen in solution.
B5 had a dissociation constant Kd of 140 pM, a koff of 0.00071 s⁻¹ and a kon of 4.9e+06 M⁻¹ s⁻¹.

B9: binding was put at a Kd of 130 pM, the off-rate constant (koff) turned out to be 0.00056 s⁻¹ and the kon worked out at 4.3e+06 M⁻¹ s⁻¹.

Molecule B10 came in with a Kd of 140 pM, a koff of 0.00063 s⁻¹ and a kon of 4.4e+06 M⁻¹ s⁻¹.

Turning to B11, the dissociation constant (Kd) amounted to 120 pM, the off-rate (koff) was found to be 0.00052 s⁻¹ and the kon was found to be 4.5e+06 M⁻¹ s⁻¹.

B12 gave a dissociation constant (Kd) of 110 pM, a koff of 0.00048 s⁻¹ and a kon of 4.5e+06 M⁻¹ s⁻¹.

In turn, B13 showed an equilibrium dissociation constant (Kd) of 140 pM, a koff of 0.00058 s⁻¹ and a kon of 4.3e+06 M⁻¹ s⁻¹.

B14: binding was put at a Kd of 130 pM, the off-rate (koff) amounted to 0.00054 s⁻¹ and the kon was determined as 4.5e+06 M⁻¹ s⁻¹.

For B15, the Kd was found to be 120 pM, the off-rate (koff) amounted to 0.00053 s⁻¹ and the kon was determined as 4.7e+06 M⁻¹ s⁻¹.

Turning to B6, binding was characterised by a dissociation constant (Kd) of 89 pM, the off-rate (koff) was 0.00044 s⁻¹ and the kon was 5e+06 M⁻¹ s⁻¹.

B16 came in with an equilibrium dissociation constant (Kd) of 150 pM, a koff of 0.00062 s⁻¹ and an on-rate constant (kon) of 4.1e+06 M⁻¹ s⁻¹.

With B7, the Kd stood at 100 pM, the koff was 0.00043 s⁻¹ and the kon is 4.1e+06 M⁻¹ s⁻¹.

The molecule B17 yielded an equilibrium dissociation constant (Kd) of 160 pM, an off-rate (koff) of 0.00066 s⁻¹ and an association rate constant (kon) of 4.3e+06 M⁻¹ s⁻¹.

Molecule B18 came in with an equilibrium dissociation constant (Kd) of 130 pM, a dissociation rate constant (koff) of 0.00056 s⁻¹ and a kon of 4.6e+06 M⁻¹ s⁻¹.

Turning to B19, binding was characterised by a dissociation constant (Kd) of 120 pM, the koff turned out to be 0.00047 s⁻¹ and the on-rate constant (kon) was found to be 4.1e+06 M⁻¹ s⁻¹.

B20 returned an equilibrium dissociation constant (Kd) of 110 pM, a dissociation rate constant (koff) of 0.00047 s⁻¹ and an association rate constant (kon) of 4.4e+06 M⁻¹ s⁻¹.

B21: the equilibrium dissociation constant (Kd) came to 120 pM, the off-rate (koff) was determined as 0.00046 s⁻¹ and the kon came out at 4.2e+06 M⁻¹ s⁻¹.

Take B22: the Kd worked out at 110 pM, the dissociation rate constant (koff) was 0.00046 s⁻¹ and the kon amounted to 4.4e+06 M⁻¹ s⁻¹.

B23 showed a dissociation constant (Kd) of 160 pM, a koff of 0.0007 s⁻¹ and a kon of 4.3e+06 M⁻¹ s⁻¹.
